Test results: the DeepSol protein solubility set

Assay: soluble on expression in E. coli; label from the status in PepcDB or PDB records

Soluble on expression in E. coli, not soluble:
MSSSGNGRSNNDRADQLRREEQERKDRELAERLQREQSDDTPPAVARRGRNRAAARERASPYSRSRIRSTAGTSDAGPSSSSSVRGRGTRGTTSARRGRGSARGGEATMNRTRANQQISESPNRRRSTRQTRNPNPQMQFEGDRVQVRQGDEIRDITAETYFPDDDDDSDYTQSDNEEEEERNATITISSSESDADSEAESDHEERDMPRAFNPRGSYARSGRGPGGRGRVITPGRYRGSGQHNISADYIRDLLHSRIYPDNPRRDPLYRSGLNNEDESDPENVDADSDDDEAQSNGSSVIDLSDDDDVLIIGGRGAVHADRNHIRQPIFDEDRVMYNHELELYHDEEEYIVPAAKPVSAGGKLVEPDSTWGDCTMCSNPPIKPQGCKKCLQFLGCTDCVRRWYAARKGSMEGSSCPLCRAPWTGRAGVLMMTTIQKNVKKAGITSANTSSDSSLPSTSSLPNN
MGSDKIHHHHHHMSIMNSLLQQKETVVKGWLTYYVSVDDPYVFALKDDHRLMDETGFVLENLFIGMTEDLAKMNTFARELGKAQFITSLGISRILFHIRLLEEFLLDYASEINAECNNYRELYLFSIKLHQVFSSFTQHLIEGYTLATEQLVQQKENQIIKSSTKLIWLAEKVFLLPLIGKITDERAKQITETALFETCEQPVNYLIIDLSGVQFDSANIGEYIEHFFSSLKLVGVTPIITGMQPETAKIMVQANLTEQKGIKTFATLRQATKSLIKEKEARNAIK
MAHHHHHHMEVKEVQPQKRLQPACDAKGENGFPLTIPCERQKVANLAPHRPLRRFLEAMRADNQNLCALKGSAVHHLKKDLRGDEKQVVLSCETPSRSNRLREKYECMKKMRFNETQEALARECDLSRIIIELQKRIEDAEASREFEREVHARESFYLLKENECLKEQVRTTEKMLLDVRNNYNLEISKLNTRVSDLEDSLVAEGQRAKTREAEQERAIQNLCSNLYTTQGELERYVEKNRELASVNSLLEEMRAESWRDKRECTVWYEVLRRREVFMLLEREAFTELQCLCMQEMNRFWQIKDDSYQAMFCSEAERFLGHIIREAEICYEMKQLMFDNATASIEKETWISLHFSKVQELSRLSEKHEALSILLAQYMREVEEIQQGNLEQVLRRKTVDDASIAYMLHQRDNEVSDKLRTWKGALQEAHKLLTALLKRYEPFQRGDEVFVGRVMEWLISAPHVKEVINVFLP
MTTSLIHMANHLDASTEEISLNYVLLGHPHHERAQHHPSYMDMIKGAIQAIDNGTGSSKAAILKYIAQNYHVGENLPKVNNHLRSVLKKAVDSGDIEQTRGHGATGSFRMGKECEKNLQVGIPVQTKPMLMLKEVRQKLENISKAEKTKPSTSSMSTNKKGKPISTMKKRGVMSKKRSSKNKMAPKAKSHGLKKKGPATKSSGLVHKAAGAKNEAAPTTKMELRTGTRKSYC
MGSDKIHHHHHHMAPLLFRQILDLEAEAIQRAAERADAEAFANATQLIANCSGKVVLSGVGKSGIIARKITATLLSIGTLSAFLHPCDALHGDLGIVTEQDVVVMLSNSGETDELLAMLPHLQRRQVPIIAIVGNMRSTLARVAAAVLDASVDREACPLNLAPTASTTVALAIGDALAAQVMDYRSVTSEQFAFNHPAGRLGKRLTLKVVDVMHQGEELPLLPPEARFVEVVTAISRGGLGAVPIVEADGRLLGLITDGDLRRLLEQTSPAKLDQITAAEFMTPQPIAVEGDLLAYDALHLMENRPSQISVLPVVDAAQRCLGLVRIHDLIRSGI
MFKILRKERLAPGINLFEIESPRIAKHAKPGQFVMIRLHEKGERIPLTIADVDISKGSITIVAQEVGKTTRELGTYEAGDYILDVLGPLGKPSHIDYFGTVVMIGGGVGVAEIYPVAKAMKEKGNYVISILGFRTKDLVFWEDKLRSVSDEVIVTTNDGSYGMKGFTTHALQKLIEEGRKIDLVHAVGPAIMMKAVAELTKPYGIKTVASLNPIMVDGTGMCGACRVTVGGEVKFACVDGPEFDAHLVDWDQLMNRLAYYRDLEKISLEKWERERRMV
